T1: Recombinant Syndecan-1 (2780-SD) (human, UniProt P18827 23-254)
T1 sequence (looked up): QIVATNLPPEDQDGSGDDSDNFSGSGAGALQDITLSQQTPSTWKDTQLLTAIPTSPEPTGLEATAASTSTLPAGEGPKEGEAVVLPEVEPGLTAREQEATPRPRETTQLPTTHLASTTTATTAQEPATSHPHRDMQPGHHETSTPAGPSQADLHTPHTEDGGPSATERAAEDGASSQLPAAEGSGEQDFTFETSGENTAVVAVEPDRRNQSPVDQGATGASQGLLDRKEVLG

B1: Biotinylated IL-34 (ligand, human, UniProt Q6ZMJ4 19-242, looked up)
chain: LGNEPLEMWPLTQNEECTVTGFLRDKLQYRSRLQYMKHYFPINYKISVPYEGVFRIANVTRLQRAQVSERELRYLWVLVSLSATESVQDVLLEGHPSWKYLQEVETLLLNVQQGLTDVEVSPKVESVLSLLNAPGPNLKLVRPKALLDNCFRVMELLYCSCCKQSSVLNWQDCEVPSPQSCSPEPSLQYAATQLYPPPPWSPSSPPHSTGSVRPVRAQGEGLLP
modifications: biotin (biotinylated, site not stated)
B2: Recombinant human TREM2 (9256-T2-50) (receptor, UniProt Q9NZC2 19-174, looked up)
chain: HNTTVFQGVAGQSLQVSCPYDSMKHWGRRKAWCRQLGEKGPCQRVVSTHNLWLLSFLRRWNGSTAITDDTLGGTLTITLRNLQPHDAGLYQCQSLHGSEADTLRKVLVEVLADPLDHRDAGDLWFPGESESFEDAHVEHSISRSLLEGEIPFPPTS

What all share (assay): ELISA
The target of assay [1] is Recombinant human CSF-1R-Fc (329-MR-100) (human, UniProt P07333 20-517).
Recombinant human CSF-1R-Fc (329-MR-100), sequence (P07333 20-517): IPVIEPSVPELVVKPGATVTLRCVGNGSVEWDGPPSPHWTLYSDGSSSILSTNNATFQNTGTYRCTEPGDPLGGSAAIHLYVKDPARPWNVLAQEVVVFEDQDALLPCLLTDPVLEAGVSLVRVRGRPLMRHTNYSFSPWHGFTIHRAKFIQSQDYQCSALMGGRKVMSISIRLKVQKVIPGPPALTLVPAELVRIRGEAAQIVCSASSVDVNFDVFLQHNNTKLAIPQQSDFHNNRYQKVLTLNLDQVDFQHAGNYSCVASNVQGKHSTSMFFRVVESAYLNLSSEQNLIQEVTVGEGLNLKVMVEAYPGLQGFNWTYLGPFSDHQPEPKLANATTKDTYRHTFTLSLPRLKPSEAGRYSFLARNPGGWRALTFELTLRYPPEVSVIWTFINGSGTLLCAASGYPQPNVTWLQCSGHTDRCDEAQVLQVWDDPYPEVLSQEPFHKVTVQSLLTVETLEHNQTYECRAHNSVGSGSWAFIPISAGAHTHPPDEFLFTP
The target in assay [2] is T1, Recombinant Syndecan-1 (2780-SD).
Assay [3] concerns the target B1.

On to B1, for which the binding result in assay [1] and in assay [2] was “binds” each time.
With B2, the binding result in assay [3] is on record as “binds”.
